Tests used:
[1] = target: his-labeled human IL-13 (immunogen A) (human) (UniProt P35225); assay: cell-based or functional assay
[2] = target: cynomolgus IL-13 (purchased from sino biological) (cynomolgus) (UniProt Q0PW92); assay: ELISA, cynomolgus IL-13; antibody at 0.11 nM
[3] = target: cynomolgus IL-13 (purchased from sino biological) (cynomolgus) (UniProt Q0PW92); assay: ELISA, cynomolgus IL-13; antibody at 0.53 nM
[4] = target: cynomolgus IL-13 (purchased from sino biological) (cynomolgus) (UniProt Q0PW92); assay: ELISA, cynomolgus IL-13; antibody at 2.67 nM
[5] = target: cynomolgus IL-13 (purchased from sino biological) (cynomolgus) (UniProt Q0PW92); assay: ELISA, cynomolgus IL-13; antibody at 0.004 nM
[6] = target: cynomolgus IL-13 (purchased from sino biological) (cynomolgus) (UniProt Q0PW92); assay: ELISA, cynomolgus IL-13; antibody at 0.021 nM
[7] = target: cynomolgus IL-13 (purchased from sino biological) (cynomolgus) (UniProt Q0PW92); assay: ELISA, cynomolgus IL-13; antibody at 13.33 nM
[8] = target: cynomolgus IL-13 (purchased from sino biological) (cynomolgus) (UniProt Q0PW92); assay: ELISA, cynomolgus IL-13; antibody at 66.67 nM
[9] = target: his-labeled human IL-13 (immunogen A) (human) (UniProt P35225); assay: ELISA, biotin-immunogen A; antibody at 0.11 nM
[10] = target: his-labeled human IL-13 (immunogen A) (human) (UniProt P35225); assay: ELISA, biotin-immunogen A; antibody at 0.53 nM
[11] = target: his-labeled human IL-13 (immunogen A) (human) (UniProt P35225); assay: ELISA, biotin-immunogen A; antibody at 2.67 nM
[12] = target: his-labeled human IL-13 (immunogen A) (human) (UniProt P35225); assay: ELISA, biotin-immunogen A; antibody at 0.000 nM
[13] = target: his-labeled human IL-13 (immunogen A) (human) (UniProt P35225); assay: ELISA, biotin-immunogen A; antibody at 0.001 nM
[14] = target: his-labeled human IL-13 (immunogen A) (human) (UniProt P35225); assay: ELISA, biotin-immunogen A; antibody at 0.004 nM
[15] = target: his-labeled human IL-13 (immunogen A) (human) (UniProt P35225); assay: ELISA, biotin-immunogen A; antibody at 0.021 nM
[16] = target: his-labeled human IL-13 (immunogen A) (human) (UniProt P35225); assay: ELISA, biotin-immunogen A; antibody at 13.33 nM
[17] = target: T1, mouse IL-13 (purchased from sino biological) (mouse, UniProt P20109 19-131); assay: ELISA, mouse IL-13; antibody at 0.11 nM
T1 chain: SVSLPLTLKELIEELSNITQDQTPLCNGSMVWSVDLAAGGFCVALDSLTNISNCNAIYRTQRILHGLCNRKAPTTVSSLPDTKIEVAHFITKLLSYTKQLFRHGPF

[18] = target: T1, mouse IL-13 (purchased from sino …); assay: ELISA, mouse IL-13; antibody at 0.53 nM
[19] = target: T1, mouse IL-13 (purchased from sino …); assay: ELISA, mouse IL-13; antibody at 2.67 nM
[20] = target: T1, mouse IL-13 (purchased from sino …); assay: ELISA, mouse IL-13; antibody at 0.000 nM
[21] = target: T1, mouse IL-13 (purchased from sino …); assay: ELISA, mouse IL-13; antibody at 0.001 nM
[22] = target: T1, mouse IL-13 (purchased from sino …); assay: ELISA, mouse IL-13; antibody at 0.004 nM
[23] = target: T1, mouse IL-13 (purchased from sino …); assay: ELISA, mouse IL-13; antibody at 0.021 nM
[24] = target: T1, mouse IL-13 (purchased from sino …); assay: ELISA, mouse IL-13; antibody at 13.33 nM
[25] = target: his-labeled human IL-13 (immunogen A) (human) (UniProt P35225); assay: FACS blocking, biotin-IL-13 on IL-13Ra2 HEK293 cells; antibody at 0.01 nM
[26] = target: his-labeled human IL-13 (immunogen A) (human) (UniProt P35225); assay: FACS blocking, biotin-IL-13 on IL-13Ra2 HEK293 cells; antibody at 0.05 nM
[27] = target: his-labeled human IL-13 (immunogen A) (human) (UniProt P35225); assay: FACS blocking, biotin-IL-13 on IL-13Ra2 HEK293 cells; antibody at 0.27 nM
[28] = target: his-labeled human IL-13 (immunogen A) (human) (UniProt P35225); assay: FACS blocking, biotin-IL-13 on IL-13Ra2 HEK293 cells; antibody at 1.33 nM
[29] = target: his-labeled human IL-13 (immunogen A) (human) (UniProt P35225); assay: FACS blocking, biotin-IL-13 on IL-13Ra2 HEK293 cells; antibody at 6.67 nM
[30] = target: his-labeled human IL-13 (immunogen A) (human) (UniProt P35225); assay: FACS blocking, biotin-IL-13 on IL-13Ra2 HEK293 cells; antibody at 0.002 nM
[31] = target: his-labeled human IL-13 (immunogen A) (human) (UniProt P35225); assay: FACS blocking, biotin-IL-13 on IL-13Ra2 HEK293 cells; antibody at 33.33 nM
[32] = target: his-labeled human IL-13 (immunogen A) (human) (UniProt P35225); assay: FACS blocking, biotin-IL-13 on IL-13Ra2 HEK293 cells; antibody at 166.67 nM
[33] = target: his-labeled human IL-13 (immunogen A) (human) (UniProt P35225); assay: ELISA: biotin-labeled immunogen A on streptavidin plate, antibody titrated, HRP secondary antibody, OD450
[34] = target: his-labeled human IL-13 (immunogen A) (human) (UniProt P35225); assay: FACS blocking assay: antibody titrated with biotin-labeled immunogen A (20 ng/mL); blocked partner IL-13Ra2 on HEK293 clone 1A1; Alexa 488 streptavidin
[35] = target: his-labeled human IL-13 (immunogen A) (human) (UniProt P35225); assay: FACS blocking assay: antibody titrated with biotin-labeled immunogen A (30 ng/mL); blocked partner IL-13Ra1/IL-4Ra on HEK293 clone 4C1; Alexa 488 streptavidin

cynomolgus IL-13 (purchased from sino biological) (cynomolgus), sequence (Q0PW92 entry or part of it): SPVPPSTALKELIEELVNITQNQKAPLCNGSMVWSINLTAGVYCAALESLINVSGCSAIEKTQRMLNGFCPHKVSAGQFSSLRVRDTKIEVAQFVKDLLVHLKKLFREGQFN

B1: 35E2C3 (lead antibody, mouse hybridoma) (antibody, V domains shown)
VH: EVQLQESGPGLAKPSQTLSLTCSVTGYSITSDYWNWIRKFPGNKLEYMGYISYNGNTYYNPSLKSQISITRDTSKNQLYLQLKSATTEDTATYYCARLAKWTWYFDIWGTGTTVTVSS
VL: DIQMNQSPSSLSASLGDTITITCHASQNINVWLSWYQQKPGSLPKLLIYKASDLHTGVPSRFSGSGSGTGFTLTISSLQPEDIATYYCQQGQSYPYTFGGGTKLEIK
notes: Mouse monoclonal antibody purified from hybridoma supernatant on Protein G
**Q.** B1 was tested. Which TARC (pg/mL), A549 cells + IL-13 5 ng/mL + TNFα; antibody at 0.001 nM [1] did it give?
**A.** The TARC (pg/mL), A549 cells + IL-13 5 ng/mL + TNFα; antibody at 0.001 nM was 1730 pg/mL.

**Q.** What about the TARC (pg/mL), A549 cells + IL-13 5 ng/mL + TNFα; antibody at 0.004 nM [1] of the same binder?
**A.** The TARC (pg/mL), A549 cells + IL-13 5 ng/mL + TNFα; antibody at 0.004 nM was 1670 pg/mL.

**Q.** And the TARC (pg/mL), A549 cells + IL-13 5 ng/mL + TNFα; antibody at 0.021 nM [1]?
**A.** Its TARC (pg/mL), A549 cells + IL-13 5 ng/mL + TNFα; antibody at 0.021 nM is 1620 pg/mL.

**Q.** What about the TARC (pg/mL), A549 cells + IL-13 5 ng/mL + TNFα; antibody at 0.11 nM [1] of the same binder?
**A.** The TARC (pg/mL), A549 cells + IL-13 5 ng/mL + TNFα; antibody at 0.11 nM was 1550 pg/mL.

**Q.** And the TARC (pg/mL), A549 cells + IL-13 5 ng/mL + TNFα; antibody at 0.5 nM [1]?
**A.** Its TARC (pg/mL), A549 cells + IL-13 5 ng/mL + TNFα; antibody at 0.5 nM is 1340 pg/mL.

**Q.** What about the TARC (pg/mL), A549 cells + IL-13 5 ng/mL + TNFα; antibody at 2.7 nM [1] of the same binder?
**A.** The TARC (pg/mL), A549 cells + IL-13 5 ng/mL + TNFα; antibody at 2.7 nM was 797 pg/mL.

**Q.** And the TARC (pg/mL), A549 cells + IL-13 5 ng/mL + TNFα; antibody at 13.3 nM [1]?
**A.** Its TARC (pg/mL), A549 cells + IL-13 5 ng/mL + TNFα; antibody at 13.3 nM is 278 pg/mL.

**Q.** What about the TARC (pg/mL), A549 cells + IL-13 5 ng/mL + TNFα; antibody at 66.7 nM [1] of the same binder?
**A.** Its TARC (pg/mL), A549 cells + IL-13 5 ng/mL + TNFα; antibody at 66.7 nM is 67 pg/mL.

**Q.** What about the OD450 nm [2] of the same binder?
**A.** Its OD450 nm is 0.11.

**Q.** What about the OD450 nm [3] of the same binder?
**A.** Its OD450 nm is 0.21.

**Q.** What about the OD450 nm [4] of the same binder?
**A.** The OD450 nm was 0.52.

**Q.** And the OD450 nm [5]?
**A.** Its OD450 nm is 0.07.

**Q.** And the OD450 nm [6]?
**A.** Its OD450 nm is 0.07.

**Q.** What about the OD450 nm [7] of the same binder?
**A.** The OD450 nm was 1.13.

**Q.** What about the OD450 nm [8] of the same binder?
**A.** The OD450 nm was 1.56.

**Q.** What about the OD450 nm [9] of the same binder?
**A.** Its OD450 nm is 0.41.

**Q.** What about the OD450 nm [10] of the same binder?
**A.** Its OD450 nm is 0.91.

**Q.** What about the OD450 nm [11] of the same binder?
**A.** The OD450 nm was 1.31.

**Q.** And the OD450 nm [12]?
**A.** Its OD450 nm is 0.05.

**Q.** And the OD450 nm [13]?
**A.** Its OD450 nm is 0.05.

**Q.** What about the OD450 nm [14] of the same binder?
**A.** The OD450 nm was 0.07.

**Q.** And the OD450 nm [15]?
**A.** The OD450 nm was 0.15.

**Q.** And the OD450 nm [16]?
**A.** The OD450 nm was 1.39.

**Q.** And the OD450 nm [17]?
**A.** The OD450 nm was 0.06.

**Q.** What about the OD450 nm [18] of the same binder?
**A.** Its OD450 nm is 0.06.

**Q.** And the OD450 nm [19]?
**A.** Its OD450 nm is 0.08.

**Q.** And the OD450 nm [20]?
**A.** The OD450 nm was 0.07.

**Q.** And the OD450 nm [21]?
**A.** Its OD450 nm is 0.07.

**Q.** And the OD450 nm [22]?
**A.** The OD450 nm was 0.06.

**Q.** What about the OD450 nm [23] of the same binder?
**A.** The OD450 nm was 0.06.

**Q.** And the OD450 nm [24]?
**A.** The OD450 nm was 0.09.

**Q.** What about the mean fluorescence intensity [25] of the same binder?
**A.** The mean fluorescence intensity was 74.3.

**Q.** And the mean fluorescence intensity [26]?
**A.** The mean fluorescence intensity was 66.6.

**Q.** What about the mean fluorescence intensity [27] of the same binder?
**A.** Its mean fluorescence intensity is 53.2.

**Q.** What about the mean fluorescence intensity [28] of the same binder?
**A.** The mean fluorescence intensity was 38.7.

**Q.** What about the mean fluorescence intensity [29] of the same binder?
**A.** Its mean fluorescence intensity is 35.1.

**Q.** What about the mean fluorescence intensity [30] of the same binder?
**A.** Its mean fluorescence intensity is 76.

**Q.** What about the mean fluorescence intensity [31] of the same binder?
**A.** The mean fluorescence intensity was 32.4.

**Q.** What about the mean fluorescence intensity [32] of the same binder?
**A.** The mean fluorescence intensity was 28.9.

**Q.** What about the EC50 (read off the curve) [33] of the same binder?
**A.** The EC50 (read off the curve) was 0.3 nM.

**Q.** And the IC50 (read off the curve) [34]?
**A.** The IC50 (read off the curve) was 0.3 nM.

**Q.** What about the IC50 (read off the curve) [35] of the same binder?
**A.** Its IC50 (read off the curve) is 0.4 nM.

— patent US20190309059A1 (SHANGHAI PHARMAEXPLORER, published 2019)
